From PMC4895014
Several values for one entry are separate records, joined by “and”; a condition that tells them apart may be missing. Identical values can stand only once.

Target: recombinant full-length H7 hemagglutinin of A/Anhui/1/2013 (H7N9) influenza virus (influenza A virus A/Anhui/1/2013 (H7N9))
Test: […]; 500 ug/ml in PBS, […]

recombinant full-length H7 hemagglutinin of A/Anhui/1/2013 (H7N9) influenza virus (natural protein)
stoichiometry N (units (HA molecules per complex)): 6 and 7 and 8
